Reference: patent US20180319847A1

What was measured:
EphB2-Fc [1] = assay: SPR, EphB2-Fc immobilised on CM5, 100 nM analyte
EphB2-Fc [2] = assay: SPR competition on immobilised EphB2-Fc; competitor ephrinB2-Fc (246 nM) preincubated with 0-1020 nM GST-Azu 88-113
EphB2-Fc [3] = assay: SPR competition on immobilised EphB2-Fc; competitor ephrinB2-Fc (246 nM), 0-1020 nM GST-Azu 88-113

Sequence of EphB2-Fc (P54763 19-543): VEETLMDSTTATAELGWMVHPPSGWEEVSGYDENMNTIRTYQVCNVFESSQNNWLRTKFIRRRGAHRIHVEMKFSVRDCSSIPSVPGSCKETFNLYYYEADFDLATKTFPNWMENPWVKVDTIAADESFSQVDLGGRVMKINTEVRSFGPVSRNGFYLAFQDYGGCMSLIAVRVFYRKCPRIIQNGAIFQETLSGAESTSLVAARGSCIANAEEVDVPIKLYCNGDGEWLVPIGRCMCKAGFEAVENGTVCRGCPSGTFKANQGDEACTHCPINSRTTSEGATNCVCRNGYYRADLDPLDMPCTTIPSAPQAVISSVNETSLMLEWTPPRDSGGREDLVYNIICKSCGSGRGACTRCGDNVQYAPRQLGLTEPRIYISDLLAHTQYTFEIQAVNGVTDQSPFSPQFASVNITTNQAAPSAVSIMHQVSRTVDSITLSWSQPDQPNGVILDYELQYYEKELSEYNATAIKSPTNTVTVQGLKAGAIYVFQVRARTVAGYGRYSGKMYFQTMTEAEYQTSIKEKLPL
Sequence of GST-Azu 88-113 (chain): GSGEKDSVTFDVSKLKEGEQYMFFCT
Sequence of GST-Azu 36-89 (B3EWN9 36-89): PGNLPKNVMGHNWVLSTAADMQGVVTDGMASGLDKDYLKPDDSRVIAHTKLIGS

| Substance | Req in RU (EphB2-Fc [1]) [RU] | reduction of total protein binding to the surface (EphB2-Fc [2]) [%] | level at which the inhibition levels off (EphB2-Fc [3]) [%] |
| --- | --- | --- | --- |
| GST-Azu 36-89 (from UniProt B3EWN9 36-89) | 57 | – | – |
| GST-Azu 88-113 | – | < 60 | 40 to 50 |
